How the values were obtained:
Format in all cases: cell-based, human
[1] = tested on: N-SMase; assay: Neutral sphingomyelinase activity in cell extracts, [14C]sphingomyelin substrate; settings: for Neutral SMase activity: MG-63 WT 2.7, L-3 LacZ/sham 2.1
Procedure: Confluent culture of cells were harvested, washed, and pellets lysed in buffer containing 0.1% Triton™ X-100, 25 mM Tris (pH 7.4) buffer, 5 mM EDTA, 1 mM phenylmethylsulfonylfluoride and 2 μg each of chymostatin, leupeptin, antipain, and pepstatin A. The activity levels of acid and neutral sphingomyelinase were measured in cell extracts (100 μg protein) in duplicate as described previously employing […] as the substrate.
Activities of A-SMase and N-SMase were also measured according to methods described in Chatterjee, S. and Ghosh, N. (1996) Glycobiology 6:303–311, incorporated herein by reference, with minor modifications. In brief, 5×10^6 MG63 cells were scraped from the culture plates, washed with PBS, and disrupted by repeated passage through a 25-gauge needle. Nuclei and cell debris were pelleted at 800×g for 5 min. Supernatant fluid was collected, and the protein concentration was measured using the Bio-Rad (Hercules, Calif.) protein detection kit. To measure SMase activity, 50 μg of protein was incubated for 90 min (the reaction was linear for up to 120 min) at 37° C. in buffer (200 μl final volume) containing 250 mM sodium acetate and 1 mM EDTA, pH 5.0, for A-SMase or 250 mM Tris-Cl, pH 7.4, with or without 6 mM MgCl2 for N-SMase, and 0.75 μl of [methyl-^14C]sphingomyelin (SM) (0.2 mCi/ml; 56.6 mCi/mmol). Radioactive phosphocholine produced from [^14C]SM was extracted with 800 μl of chloroform-methanol (2:1, vol/vol) and 100 μl of H2O. [^14C]phosphocholine in the aqueous phase was measured by scintillation counting.

[2] = tested on: N-SMase mRNA; assay: N-SMase mRNA by Northern analysis and RT-PCR in transfected MG63 clones
Procedure: RNA was originally extracted from a single confluent (90%) T-75 flask using Trizol. […] Next, poly-A^+ RNA was extracted from 3 confluent T-75 flasks, loading 3.5 μg/lane. Northern gels were standard, using 1.2% agarose, 1×MOPS, and 6.5% formaldehyde. RNA was transferred to nylon membranes with a standard wick system. The cDNA probe was derived from the cDNA construct, pHH11. An EcoR-1/SpeI fragment, containing a three hundred base pair probe was prepared. This was radiolabeled with [^32P]-dCTP and the random primer labeling system.
Clone CC had no detectable N-SMase mRNA by Northern analysis, so RT-PCR was performed to quantitate the reduction. Compared to a control-transfected clone (WT), there was a 50% reduction in mRNA in clone CC (ribozyme). This was confirmed by western blot analysis of the transfected and control clones for N-SMase.

[3] = tested on: MG-63 cells; assay: Cell viability by trypan blue staining; settings: ribozyme transfected cells, 24 hours, trypan blue, FIG. 8
Procedure: FIG. 8 depicts the effect of TNF-α on viability of wild type, ribozyme transfected and wild type/mock transfected cells. Cells ([…]) were seeded in 96 well sterile plastic trays. Upon confluence medium was replaced with serum free minimum essential medium and TNF-α (20 ng/ml). After incubation for 24 h at 37° C., viability of cells were determined by Trypan blue staining. The results represent ±S.D. of three experiments.
The population of viable cells was determined using trypan blue staining. Cells (10^4) were seeded in 96 well plates. Twenty-four hours later, the media was replaced with serum-free MEM, and TNF-α in various concentrations was added. After incubation for 24 hours at 37° C., the cells were trypsinized, and viable cells were counted after staining with trypan blue. Values were compared to the original cell count (10^4) and expressed as a percentage.

[4] = tested on: caspase-3 and cytochrome-C release; assay: Caspase-3 and cytochrome-C release by western analysis and densitometry; settings: N-SMase-deficient cells compared to control (sham-transfected) cells
Procedure: In order to determine a dose-response relationship between the concentration of TNF-α or FasL and apoptosis, western analysis was used to quantitate release of both caspase-3 (FIG. 9) and cytochrome-C (FIG. 10).
Immunoblots for the measurement of cytochrome-C and caspase-3 were carried out after incubation of cells with TNF-α (10 ng/ml) or FasL (1 ng/ml) for 48 hours. Cells were extracted with a buffer (20 mM Hepes pH 7.5, 10 mM KCl, 1.5 mM MgCl2, 5 mM EDTA, 5 mM DTT, 2 mM phenylmethylsulfonylfluoride, 1% NonidetP40, 0.5% sodium deoxycholate, 0.1% SDS, 2 μg/ml leupeptin, 2 μg/ml aprotinin, 0.5 μg/ml benzamindine, and 250 mM sucrose) on ice for 30 minutes. After centrifugation for 10 minutes at 10,000×g, the supernatant was used for western analysis with an antibody for cytochrome-C (Pharmingen, San Diego, Calif.). For assessment of caspase-3, samples were similarly processed in addition to passage through a 21-g needle prior to centrifugation. The western analysis was performed with a rabbit polyclonal IgG antibody to caspase-3 (Santa Cruz, Calif.) raises against an epitope corresponding to amino acids 1–277, representing the full-length precursor form of CPP-32 (caspase-3). For both caspase-3 and cytochrome-C, bands were quantified with densitometric analysis.

[5] = tested on: MG-63 cells; assay: Apoptosis by DAPI staining and counting of apoptotic cells; settings: for Apoptosis in response to TNF-α and Fas-L: cells with ribozyme-induced deficiency of N-SMase, TNF-α 20 ng/ml, Fas-L 1 ng/ml, 24 hr
Procedure: FIG. 6 depicts a quantitative analysis of the effects of TNF-α, C2-Ceramide and Fas-ligand on apoptosis in mutant (CC) and WT (MG-63) cells, as well as wild type/mock transfected cells. Cells were grown on glass cover slips and incubated for 24 hours with TNF-α (20 ng/ml), cell-permeable ceramide (C2-Ceramide) (10 ng/ml) or Fas-L (1 ng/ml). Cells were fixed and stained with DAPI and photographed at 50× magnification. Apoptotic cells were counted using a hemocytometer. The basal levels of apoptotic cells were: MG-63 (3%); L-3 (3%); and CC (2.8%). Errors bars indicate ±S.D. (N=2).
WT (MG-63), LacZ (L-3) and mutant (CC) cells were grown on glass cover slips and incubated for 24 hr with TNF-α (20 ng/ml), cell-permeable ceramide (C2-ceramide) (10 ng/ml) or Fas-L (1 ng/ml). Cells were fixed and stained with DAPI stain and photographed (50×). Apoptotic cells were counted using a hemocytometer and compared to total cell counts per field. Basal levels of apoptosis were 3% untransfected, 3% control transfection, and 2.8% ribozyme transfection.

B1: N-SMase ribozyme: U1 snRNA-derived hammerhead antisense ribozyme targeting N-SMase mRNA, expressed from vector pNSMRz; stably transfected MG63 clones CC and C-B (nucleic acid, listed as Homo sapiens)
chain: AUACUUACCUGGCAGGGGAGAUACCAUGAUCACGAAGGUGGUUUUCCCAGGGCGAGGCUUAUCCAUUGGCCUCCGGAUGUGCUGACCCCUGCGAUUUCCCCAAAUGUGGGAAACUCGACUGCAGAAUAUGUCAUCAUAUUGCCUGAUGAGUCCGUGAGGACGAAACCUCUUCACAUGAAAAAGUGGGGCUGCGUUCGCGCUUCCCCG
[1]; MG-63 clone C-B (ribozyme-transfected mutant), average of two batches
  Neutral SMase activity: 1.0 nmol/mg protein/hr
[1]; MG-63 clone CC (ribozyme-transfected mutant), average of two batches of cell pellets
  Neutral SMase activity: 0.67 nmol/mg protein/hr
[1]; ribozyme-transfected cells compared to sham-transfected and untransfected controls
  Reduction in N-SMase activity: three-fold reduction
[2]; clone CC
  N-SMase mRNA by Northern analysis: no detectable
[2]; clone CC compared to a control-transfected clone (WT)
  Reduction in N-SMase mRNA by RT-PCR: 50%
[3]
  Decline in viable cells over a wide range of TNF-α concentrations: no significant decline
[4]
  Dose-response of caspase-3 and cytochrome-C release to TNF-α and FasL: marked blunting of the response
[5]; CC (ribozyme transfection), DAPI, 3% untransfected, 3% control transfection
  Basal level of apoptotic cells: 2.8%
[5]
  Apoptosis in response to TNF-α and Fas-L: marked hyporesponsiveness
[5]; listed as antisense ribozyme
  Apoptosis in response to TNF-α and Fas-L: not altered
[5]; listed as ribozyme
  Apoptosis in response to TNF-α and Fas-L: marked resistance to apoptosis
